Source: patent publication US20100297664A1 (NATIONAL INSTITUTE OF ADVANCE INDUSTRIAL SCIENCE AND …, published 2010)

Columns and labels:
Assay in all cases: peptide microarray (RepliTope)
SEQ ID NO 70 = target: T1, SEQ ID NO 70 (human)
T1 construct: 15-mer of the human mortalin 348-450 array; by its order peptide #49 (inferred)
T1 peptide: QQTVQDLFGRAPSKA
Method: (§1) Eighty nine (89) peptides (15 amino acids each) which were designed to each be shifted by one amino acid on the amino acid sequence ranging from position 348 to position 450 of human mortalin containing the amino acid sequence (SEQ ID NO: 56) ranging from the above position 381 to position 410, were chemically synthesized. Epitope mapping (RepliTope mapping) analysis was then carried out on them using a Tecon HS400 microarray analysis station (FIG. 14).
(§2) Background measurement was carried out for each microarray using an Axon Genepix scanner, so that it was confirmed that no signals were detected. All microarrays were treated using a blocking buffer (Pierce, Puperblock TBS #37536).
(§3) As anti-mortalin monoclonal antibodies having the cellular internalizing function, two antibodies 37-6 and 38-4 were prepared. Antibody 53-3 that is an anti-mortalin antibody not having the cellular internalizing function was prepared for comparison. Each antibody (30 μg/mL, 200 μL) diluted with a blocking buffer was applied to microarrays and then incubated. After the microarrays were washed 3 instances with a TBS buffer containing 0.1% T20, a fluorescence-labeled secondary antibody (1 μg/mL, anti-mouse-Dylight 649; Pierce #35515) was applied thereto and then incubated. Similarly, a control array subjected to incubation with only the secondary antibody was also treated so as to confirm no detected signals.

SEQ ID NO 78 = target: T2, SEQ ID NO 78 (human)
T2 construct: 15-mer of the human mortalin 348-450 array
T2 peptide: GEVILVGGMTRMPKV
Method: as §1, §2, §3

SEQ ID NO 75 = target: T3, SEQ ID NO 75 (human)
T3 construct: 15-mer of the human mortalin 348-450 array; by its order peptide #54 (inferred)
T3 peptide: DLFGRAPSKAVNPDE
Method: as §1, §2, §3

SEQ ID NO 76 = target: T4, SEQ ID NO 76 (human)
T4 construct: 15-mer of the human mortalin 348-450 array; by its order peptide #55 (inferred)
T4 peptide: LFGRAPSKAVNPDEA
Method: as §1, §2, §3

SEQ ID NO 71 = target: T5, SEQ ID NO 71 (human)
T5 construct: 15-mer of the human mortalin 348-450 array; by its order peptide #50 (inferred)
T5 peptide: QTVQDLFGRAPSKAV
Method: as §1, §2, §3

SEQ ID NO 68 = target: T6, SEQ ID NO 68 (human)
T6 construct: 15-mer of the human mortalin 348-450 array; by its order peptide #47 (inferred)
T6 peptide: KVQQTVQDLFGRAPS
Method: as §1, §2, §3

SEQ ID NO 72 = target: T7, SEQ ID NO 72 (human)
T7 construct: 15-mer of the human mortalin 348-450 array; by its order peptide #51 (inferred)
T7 peptide: TVQDLFGRAPSKAVN
Method: as §1, §2, §3

SEQ ID NO 73 = target: T8, SEQ ID NO 73 (human)
T8 construct: 15-mer of the human mortalin 348-450 array; by its order peptide #52 (inferred)
T8 peptide: VQDLFGRAPSKAVNP
Method: as §1, §2, §3

SEQ ID NO 69 = target: T9, SEQ ID NO 69 (human)
T9 construct: 15-mer of the human mortalin 348-450 array; by its order peptide #48 (inferred)
T9 peptide: VQQTVQDLFGRAPSK
Method: as §1, §2, §3

SEQ ID NO 81 = target: T10, SEQ ID NO 81 (human)
T10 construct: 15-mer of the human mortalin 348-450 array
T10 peptide: TRMPKVQQTVQDLFG
Method: as §1, §2, §3

SEQ ID NO 67 = target: T11, SEQ ID NO 67 (human)
T11 construct: 15-mer of the human mortalin 348-450 array
T11 peptide: PKVQQTVQDLFGRAP
Method: as §1, §2, §3

SEQ ID NO 74 = target: T12, SEQ ID NO 74 (human)
T12 construct: 15-mer of the human mortalin 348-450 array; by its order peptide #53 (inferred)
T12 peptide: QDLFGRAPSKAVNPD
Method: as §1, §2, §3

SEQ ID NO 79 = target: T13, SEQ ID NO 79 (human)
T13 construct: 15-mer of the human mortalin 348-450 array
T13 peptide: EVILVGGMTRMPKVQ
Method: as §1, §2, §3

SEQ ID NO 82 = target: T14, SEQ ID NO 82 (human)
T14 construct: 15-mer of the human mortalin 348-450 array
T14 peptide: RMPKVQQTVQDLFGR
Method: as §1, §2, §3

SEQ ID NO 80 = target: T15, SEQ ID NO 80 (human)
T15 construct: 15-mer of the human mortalin 348-450 array
T15 peptide: GMTRMPKVQQTVQDL
Method: as §1, §2, §3

SEQ ID NO 77 = target: T16, SEQ ID NO 77 (human)
T16 construct: 15-mer of the human mortalin 348-450 array
T16 peptide: KAMQDAEVSKSDIGE
Method: as §1, §2, §3

Measured: binding result

B1: anti-mortalin monoclonal antibody 52-3 (antibody, V domains shown)
VH: QVQLQQPGAELVKPGASVKLSCKASGYTFTSYWMHWVKQRPGQGLEWIGEINPSNGRTNYNEKFKSKATLTVDKSSSTAYMQLSSLTSEDSAVYYCARSRYYGSCYFDYWGQGTTLTVSS
VL: KIVMTQAAFSNPVTLGTSASISCRSSKSLLYSNGITYLYWYLQKPGQSPQLLIYQMSNLASGVPDRFSSSGSGTDFTLRISRVEAEDVGVYYCAQNLELPWTFGGGTKLEIK
notes: also called 52-3 antibody; non-internalization antibody
no binding (tested: 30 µg/mL): all assays above
